Changes are numbered by the printed parent chain. Names may count otherwise. Read-outs that look alike come from different tables or passages of the source.

For assay [1], the target named is T1, integrin αvβ3 (R & D Systems, Inc.) (UniProt P06756 31-992; P05106 27-718).
T1 construct: Bought protein
The assay is described as follows: ELISA on coated integrin αvβ3 (1 µg/mL), detection with HRP-labeled anti-human IgG antibody. (In general: In an ELISA, binding on a coated surface is turned into a signal by an enzyme label.)
Protocol: The integrin αvβ3 binding of each molecule with the RGD (Arg-Gly-Asp) peptide inserted in the Fc region was assessed by ELISA (enzyme-Linked immunosorbent assay). Specifically, integrin αvβ3 (R & D Systems, Inc.) diluted to 1 μg/mL with a coating buffer (0.1 M NaHCO₃, pH 9.6) was added at a concentration of 100 μL/well to Nunc-Immuno™ MicroWell™ 96 well solid plates (Nunc) to immobilize the integrin αvβ3 to the plates. Each well of the antigen (integrin αvβ3)-immobilized plates was washed three times with 250 μL of a TBS solution containing 0.1 g/L calcium chloride and 0.1 g/L magnesium chloride (referred to as a TBS(+) solution). A TBS solution containing 5% BSA, 0.1 g/L calcium chloride, and 0.1 g/L magnesium chloride (referred to as a blocking solution) was added thereto at a concentration of 250 μL/well, and the plates were incubated at room temperature for 1 hour.
After removal of the blocking solution, each well was washed three times with a TBS(+) solution. […]
After removal of the HRP-labeled antibody solution, each well was washed three times with a TBS(+) solution. […] The absorbance of the solution whose reaction had been stopped was measured at a wavelength of 450 nm.

Assay [2] addresses T2, FcγRIIa(R) extracellular domain with C-terminal His tag (human, UniProt P12318 34-217).
T2 construct: extracellular domain; polymorphic form R131; also called FcγRIIa R type
T2 sequence: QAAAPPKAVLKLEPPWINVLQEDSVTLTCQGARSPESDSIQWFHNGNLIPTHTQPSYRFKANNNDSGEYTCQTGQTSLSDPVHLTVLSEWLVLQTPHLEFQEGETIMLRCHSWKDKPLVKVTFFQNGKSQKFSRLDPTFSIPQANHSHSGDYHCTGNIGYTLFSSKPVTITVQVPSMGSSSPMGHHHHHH
The assay is described as follows: SPR (Biacore), captured antibody, FcγR analyte, 1:1 Langmuir fit. A general note: In SPR one partner is held on a chip, and binding of the other changes the refractive index at the surface.
Protocol: (§1) The antibody of interest was analyzed for its interaction with FcγR using a BiaCore™ T100, BiaCore™ A100, or BiaCore™ 4000 surface plasmon resonance system (GE Healthcare Japan Corp.). The running buffer used was HBS-EP+ (GE Healthcare Japan Corp.). The assay temperature was set to 25° C. The sensor chips used were: a chip prepared by immobilizing antigenic peptides onto Series S Sensor Chip CM5 (GE Healthcare Japan Corp.) by the amine coupling method; a chip prepared by immobilizing antigenic peptides biotinylated in advance onto Series S Sensor Chip SA (certified) (GE Healthcare Japan Corp.) through their interaction; a chip prepared by immobilizing protein L (ACTIGEN, BioVision, Inc.) onto Series S Sensor Chip CM5 (GE Healthcare Japan Corp.); and a chip prepared by immobilizing protein A/G (Thermo Fisher Scientific K.K.) onto Series S Sensor Chip CM5 (GE Healthcare Japan Corp.). The antibody of interest was captured onto any of these chips and allowed to interact with FcγR diluted with a running buffer. The antibody captured on the chip was washed off through the reaction of 10 mM glycine-HCl (pH 1.5) to regenerate the chip, which was repetitively used.

Assay [3] addresses T3, FcγRIIa(H) extracellular domain with C-terminal His tag (human, UniProt P12318 34-217).
T3 construct: extracellular domain; polymorphic form H131; also called FcγRIIa H type
T3 sequence: T2 sequence with R134H
Described as above.
Protocol: as §1

In assay [4] the target is T4, FcγRIIIa(F) extracellular domain with C-terminal His tag (human, UniProt P08637 17-208).
T4 construct: extracellular domain; polymorphic form F158; also called FcγRIIIa F type
T4 sequence (P08637 other isoform, or with tags, fused parts or gaps): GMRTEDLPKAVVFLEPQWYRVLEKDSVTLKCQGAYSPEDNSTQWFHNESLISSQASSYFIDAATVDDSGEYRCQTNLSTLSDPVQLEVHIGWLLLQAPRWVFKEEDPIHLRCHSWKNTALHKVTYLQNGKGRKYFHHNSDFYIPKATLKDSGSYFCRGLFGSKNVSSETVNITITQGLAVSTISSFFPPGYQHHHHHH
Described as above.
Protocol: as §1

Assay [5] deals with T5, FcγRIIIa(V) extracellular domain with C-terminal His tag (human, UniProt P08637 17-208).
T5 construct: extracellular domain; polymorphic form V158; also called FcγRIIIa V type
T5 sequence (P08637 other isoform, or with tags, fused parts or gaps): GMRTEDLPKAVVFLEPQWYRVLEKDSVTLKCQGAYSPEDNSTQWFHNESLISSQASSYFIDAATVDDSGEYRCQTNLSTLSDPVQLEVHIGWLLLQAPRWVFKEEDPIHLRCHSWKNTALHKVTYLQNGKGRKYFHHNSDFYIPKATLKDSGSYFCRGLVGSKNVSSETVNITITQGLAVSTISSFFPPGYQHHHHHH
The description is as above.
Protocol: as §1

Assay [6] deals with T6, FcγRIIb extracellular domain with C-terminal His tag (human, UniProt P31994 43-217).
T6 construct: extracellular domain
T6 sequence: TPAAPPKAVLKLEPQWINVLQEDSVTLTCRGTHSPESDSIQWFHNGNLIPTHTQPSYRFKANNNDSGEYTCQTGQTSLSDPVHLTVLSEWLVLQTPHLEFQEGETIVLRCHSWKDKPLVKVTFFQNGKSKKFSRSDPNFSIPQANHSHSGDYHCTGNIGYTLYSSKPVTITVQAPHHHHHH
The description is as above.
Protocol: as §1

The target in assay [7] is T7, FcγRIa extracellular domain with C-terminal His tag (human, UniProt P12314 16-292).
T7 construct: extracellular domain
T7 sequence (P12314 other isoform, or with tags, fused parts or gaps): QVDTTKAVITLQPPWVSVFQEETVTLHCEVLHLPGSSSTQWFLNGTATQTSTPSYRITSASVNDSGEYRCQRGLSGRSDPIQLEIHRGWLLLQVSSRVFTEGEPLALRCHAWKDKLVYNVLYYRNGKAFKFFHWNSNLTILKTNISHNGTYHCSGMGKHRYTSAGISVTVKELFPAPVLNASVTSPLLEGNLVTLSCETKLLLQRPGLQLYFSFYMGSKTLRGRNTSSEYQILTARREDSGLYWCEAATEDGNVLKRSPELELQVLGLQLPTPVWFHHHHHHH
Described as above.
Protocol: as §1

Assay [8] deals with T2, FcγRIIa(R) extracellular domain with …. The description is as above. The source holds these as a separate data set.
Protocol: as §1
In assay [9] the target is T3, FcγRIIa(H) extracellular domain with …. The assay is described as above. This is another data set of the same source.
Protocol: as §1
Assay [10] concerns the target T4, FcγRIIIa(F) extracellular domain with …. Described as above. This is another data set of the same source.
Protocol: as §1
For assay [11], the target named is T5, FcγRIIIa(V) extracellular domain with …. Described as above. The source holds these as a separate data set.
Protocol: as §1
Assay [12] has as its target T6, FcγRIIb extracellular domain with …. Described as above. The source holds these as a separate data set.
Protocol: as §1
The target in assay [13] is T7, FcγRIa extracellular domain with …. The description is as above. The source holds these as a separate data set.
Protocol: as §1
The target in assay [14] is T8, FcγRIIIa extracellular domain with C-terminal His tag (allotype not given) (UniProt P08637 17-208, limits assumed).
T8 construct: extracellular domain; also called 3a
The assay is described as follows: SPR (Biacore), from the KD values of Table 5.

T1 sequence (P06756 31-992, chain 1 of 2): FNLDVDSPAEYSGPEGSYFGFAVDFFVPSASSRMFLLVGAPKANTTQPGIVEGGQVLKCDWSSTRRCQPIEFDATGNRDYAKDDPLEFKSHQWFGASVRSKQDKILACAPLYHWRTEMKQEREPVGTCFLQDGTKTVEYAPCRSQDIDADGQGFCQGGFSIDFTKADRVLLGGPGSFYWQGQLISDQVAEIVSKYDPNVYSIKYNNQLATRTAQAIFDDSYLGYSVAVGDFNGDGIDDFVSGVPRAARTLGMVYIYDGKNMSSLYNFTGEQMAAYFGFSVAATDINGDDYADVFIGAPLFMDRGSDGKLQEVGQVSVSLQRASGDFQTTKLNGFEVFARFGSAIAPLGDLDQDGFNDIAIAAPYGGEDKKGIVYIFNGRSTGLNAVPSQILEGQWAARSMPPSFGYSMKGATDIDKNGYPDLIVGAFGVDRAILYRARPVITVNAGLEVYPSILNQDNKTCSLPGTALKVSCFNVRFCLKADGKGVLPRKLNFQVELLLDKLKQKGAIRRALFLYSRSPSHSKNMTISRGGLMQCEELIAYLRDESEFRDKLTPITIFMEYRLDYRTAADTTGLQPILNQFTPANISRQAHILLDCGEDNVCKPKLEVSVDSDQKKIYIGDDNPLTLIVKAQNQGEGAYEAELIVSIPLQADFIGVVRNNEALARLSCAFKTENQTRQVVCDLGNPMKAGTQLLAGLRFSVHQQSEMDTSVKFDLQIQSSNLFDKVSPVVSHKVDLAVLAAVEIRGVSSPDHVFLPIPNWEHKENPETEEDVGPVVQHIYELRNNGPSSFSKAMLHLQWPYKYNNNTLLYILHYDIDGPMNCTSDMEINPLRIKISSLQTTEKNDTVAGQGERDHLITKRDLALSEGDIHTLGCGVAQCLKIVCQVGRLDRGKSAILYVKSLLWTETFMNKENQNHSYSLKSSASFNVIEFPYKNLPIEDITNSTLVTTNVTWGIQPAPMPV
T1 sequence (P05106 27-718, chain 2 of 2): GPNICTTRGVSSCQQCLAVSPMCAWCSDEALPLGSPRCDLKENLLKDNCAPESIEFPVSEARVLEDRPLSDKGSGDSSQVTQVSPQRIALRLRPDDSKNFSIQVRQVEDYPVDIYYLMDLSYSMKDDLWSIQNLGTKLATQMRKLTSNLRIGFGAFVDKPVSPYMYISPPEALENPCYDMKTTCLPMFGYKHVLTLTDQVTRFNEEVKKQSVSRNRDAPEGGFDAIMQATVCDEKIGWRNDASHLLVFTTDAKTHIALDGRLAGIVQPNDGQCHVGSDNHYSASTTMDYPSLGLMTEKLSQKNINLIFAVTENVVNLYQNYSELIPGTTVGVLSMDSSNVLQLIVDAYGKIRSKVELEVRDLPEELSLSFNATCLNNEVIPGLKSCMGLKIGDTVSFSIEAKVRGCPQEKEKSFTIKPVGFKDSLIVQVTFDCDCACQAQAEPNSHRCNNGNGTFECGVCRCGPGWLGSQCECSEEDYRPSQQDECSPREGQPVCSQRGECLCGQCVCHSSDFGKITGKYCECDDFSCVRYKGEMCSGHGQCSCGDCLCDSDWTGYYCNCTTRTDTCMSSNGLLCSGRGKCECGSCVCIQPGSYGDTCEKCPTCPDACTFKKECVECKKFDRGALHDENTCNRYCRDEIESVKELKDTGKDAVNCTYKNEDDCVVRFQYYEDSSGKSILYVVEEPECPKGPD

B1: H240-Kn125/H240-Hl076/L73-k0 (antibody, human IgG1, kappa)
heavy 1: QDQLVQSGAEVKKPGASVKVSCKASGFNIKDTYIQWVRQAPGQGLEWMGRIDPLRKQTKYREKFEGRVTITADTSTNTAYMELSSLRSEDTAVYYCVRSGREFDYWGQGTLVTVSSASTKGPSVFPLAPSSKSTSGGTAALGCLVKDYFPEPVTVSWNSGALTSGVHTFPAVLQSSGLYSLSSVVTVPSSSLGTQTYICNVNHKPSNTKVDKKVEPKSCDKTHTCPPCPAPEYQWGPMVFLFPPKPKDTLMISRTPEVTCVVVDVSDEEPEVKFNWYVDGVEVHNAKTKPREEQYNATYRVVSVLTVLHQDWLNGKEYKCKVSNKALPAPIEKTISKAKGQPREPQVCTLPPSRDELTKNQVSLWCLVKGFYPSDIAVEWESNGQPENNYKTTPPVLDSDGSFFLYSKLTVDKSRWQQGNVFSCSVMHEALHNHYTQKSLSLSP
heavy 2: QDQLVQSGAEVKKPGASVKVSCKASGFNIKDTYIQWVRQAPGQGLEWMGRIDPLRKQTKYREKFEGRVTITADTSTNTAYMELSSLRSEDTAVYYCVRSGREFDYWGQGTLVTVSSASTKGPSVFPLAPSSKSTSGGTAALGCLVKDYFPEPVTVSWNSGALTSGVHTFPAVLQSSGLYSLSSVVTVPSSSLGTQTYICNVNHKPSNTKVDKKVEPKSCDKTHTCPPCPAPELLGGPSVFLFPPKPKDTLMISRTPEVTCVVVDVSHEEPEVKFNWYVDGVEVHNAKTKPREEQYNSTYRVVSVLTVLHQDWLNGKEYKCKVSNDALPMPIEETISKAKGQPREPQVYTLPPSRCELTKNQVSLSCAVKGFYPSDIAVEWESNGQPENNYKTTPPVLDSDGSFFLVSKLTVDKSRWQQGNVFSCSVMHEALHNHYTQKSLSLSP
light: DIQMTQSPSSLSASVGDRVTITCRASQDIHKYIAWYQQKPGQAPRLLIQYTSTLQPGVPSRFSGSGSGTDYTFTISSLQPEDIATYYCLQYEQLRTFGGGTKVEIKRTVAAPSVFIFPPSDEQLKSGTASVVCLLNNFYPREAKVQWKVDNALQSGNSQESVTEQDSKDSTYSLSSTLTLSKADYEKHKVYACEVTHQGLSSPVTKSFNRGEC
notes: also called Hl076/Kn125; parent peptide
With B1, in assay [1], the binding result is listed as “no binding (tested: 100 µg/mL)”.

B2: H240-Kn032/H240-Hl032/L73-k0 (antibody, human IgG1, kappa)
heavy 1: B1 heavy 1 with Y233L, Q234L, W235G, M238D, D267H, E269D, A297S, A329L, I331E
heavy 2: B1 heavy 2 with S238D, E269D, D325K, M329L, I331E, E333K
light: B1 light
notes: anti-epiregulin IgG1 called homodimerized: S239D/A330L/I332E in both H chains, knobs-into-holes; also called H240-Kn032/H240-HI032/L73-k0
With B2, the Kd – broadly, the concentration at which binding is half-saturated – was 340 nM in assay [2]; 690 nM in [3]; 9.1 nM in assay [4]; 3.1 nM in [5]; 620 nM in assay [6]; 0.073 nM in [7]. Further, the dissociation constant (Kd) in assay [8] is 340 nM; in assay [9], 690 nM; in assay [10], 9.1 nM; in assay [11] it was 3.1 nM; in assay [12], 620 nM; in assay [13] it was 0.073 nM.

B3: H240-Kn061/H240-Hl071/L73-k0 (antibody, human IgG1, kappa)
heavy 1: B1 heavy 1 with Q234Y, M238S, E269D
heavy 2: B1 heavy 2 with E269D
light: B1 light
notes: heterodimerized anti-epiregulin IgG1; L234Y/L235Y/G236W/H268D/S298A in Kn061, K326D/A330M/K334E in Hl071; also called H240-Kn061/H240-HI071/L73-k0
With B3, the Kd in assay [2] came to 350 nM; in [3], 280 nM; in [4] it was 5.1 nM; in assay [5], 1.8 nM; in assay [6], 1200 nM; in assay [7] it was 0.14 nM. The Kd in assay [8] came out at 350 nM; in assay [9], 280 nM; in [10], 5.1 nM; in assay [11], 1.8 nM; in assay [12], 1200 nM; in assay [13], 0.14 nM.

B4: GpH7-A57/GpH7-B78/GpL16-k0 (antibody, human IgG1, kappa)
heavy 1: QVQLVQSGAEVKKPGASVTVSCKASGYTFTDYEMHWIRQPPGEGLEWIGAIDPKTGDTAYSESFQDRVTLTADKSTSTAYMELSSLTSEDTAVYYCTRFYSYTYWGQGTLVTVSSASTKGPSVFPLAPSSKSTSGGTAALGCLVKDYFPEPVTVSWNSGALTSGVHTFPAVLQSSGLYSLSSVVTVPSSSLGTQTYICNVNHKPSNTKVDKKVEPKSCDKTHTCPPCPAPELLGGPDVFLFPPKPKDTLMISRTPEVTCVVVDVSHEDPEVKFNWYVDGVEVHNAKTKPREEQYNSTYRVVSVLTVLHQDWLNGKEYKCKVSNKALPLPEEKTISKAKGQPREPQVYTLPPSRKELTKNQVSLTCLVKGFYPSDIAVEWESNGQPENNYKTTPPVLDSDGSFFLYSKLTVDKSRWQQGNVFSCSVMHEALHNRYTQKSLSLSP
heavy 2: B4 heavy 1 with K354D, R433H, K437E
light: DIVMTQSPLSLPVTPGEPASISCQASESLVHSNRNTYLHWYLQKPGQSPQLLIYKVSNRFSGVPDRFSGSGSGTDFTLKISRVEAEDVGVYYCSQNTHVPPTFGQGTKVEIERTVAAPSVFIFPPSDEQLKSGTASVVCLLNNFYPREAKVQWKVDNALQSGNSQESVTEQDSKDSTYSLSSTLTLSKADYEKHKVYACEVTHQGLSSPVTKSFNRGEC
notes: Called homodimerized: S239D, A330L, I332E in both H chains
For B4, the “fold FcγRIIIa-binding activity against the corresponding heterodimerized antibody (GpH7-A5/GpH7-B78/GpL16-k0)” value in assay [14] was roughly 9 times.

B5: GpH7-TA7/GpH7-B78/GpL16-k0 (antibody, human IgG1, kappa)
heavy 1: B4 heavy 1 with L232Y, G234W, D237S, S296A, L328A, E330I
heavy 2: B4 heavy 1 with K354D, R433H, K437E
light: B4 light
notes: L234Y, G236W, S298A in one H chain and S239D, A330L, I332E in the other
Regarding B5, in [14], the “fold FcγRIIIa-binding activity against GpH7-A5/GpH7-B78/GpL16-k0” value was no less than 10 times.

Values taken from US20260167699A1 (Chugai, published 2026).
